# Paper PMC7854383, “Cellular Uptake of Psychostimulants – Are High- and Low-Affinity Organic Cation Transporters Drug Traffickers?” (Frontiers in Pharmacology, 2021)
# T1: OCT2 (Homo sapiens, UniProt O15244)
# T1 sequence (O15244 1-555 S270A): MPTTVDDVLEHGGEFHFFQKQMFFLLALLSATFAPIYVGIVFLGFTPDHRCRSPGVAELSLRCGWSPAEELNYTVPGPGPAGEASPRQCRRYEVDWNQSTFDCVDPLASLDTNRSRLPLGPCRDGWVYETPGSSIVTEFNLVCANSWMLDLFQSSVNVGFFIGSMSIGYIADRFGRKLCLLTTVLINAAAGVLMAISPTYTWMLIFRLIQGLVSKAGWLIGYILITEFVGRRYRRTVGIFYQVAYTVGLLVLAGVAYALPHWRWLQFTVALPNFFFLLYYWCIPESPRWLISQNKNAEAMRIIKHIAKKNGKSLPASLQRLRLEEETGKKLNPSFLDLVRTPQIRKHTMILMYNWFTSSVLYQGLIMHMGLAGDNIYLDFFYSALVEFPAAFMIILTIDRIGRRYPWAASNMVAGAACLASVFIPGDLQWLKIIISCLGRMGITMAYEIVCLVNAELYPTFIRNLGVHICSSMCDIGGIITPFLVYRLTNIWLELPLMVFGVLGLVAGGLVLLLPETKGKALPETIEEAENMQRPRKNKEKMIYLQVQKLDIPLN
# T2: OCT3 (Homo sapiens, UniProt O75751)
# T2 construct: Koepsell and Gorbulev (University of Würzburg); host or cells: HEK293
# T2 sequence (O75751 1-556): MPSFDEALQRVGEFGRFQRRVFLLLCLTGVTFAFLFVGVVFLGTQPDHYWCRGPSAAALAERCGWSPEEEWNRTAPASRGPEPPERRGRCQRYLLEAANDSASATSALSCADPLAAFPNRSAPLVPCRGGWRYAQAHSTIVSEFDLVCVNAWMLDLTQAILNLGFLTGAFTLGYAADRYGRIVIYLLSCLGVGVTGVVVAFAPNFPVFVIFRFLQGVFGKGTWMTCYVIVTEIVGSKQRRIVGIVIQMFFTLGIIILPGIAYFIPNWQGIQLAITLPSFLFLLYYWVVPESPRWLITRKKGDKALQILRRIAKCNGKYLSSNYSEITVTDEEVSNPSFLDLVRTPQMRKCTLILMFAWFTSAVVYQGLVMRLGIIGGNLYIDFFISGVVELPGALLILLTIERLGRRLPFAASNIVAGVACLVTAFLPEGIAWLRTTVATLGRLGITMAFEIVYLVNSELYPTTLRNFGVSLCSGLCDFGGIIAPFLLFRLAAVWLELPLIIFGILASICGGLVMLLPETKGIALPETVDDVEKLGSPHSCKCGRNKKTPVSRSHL
# T3: wild-type OCT2 (Homo sapiens, UniProt O15244)
# T3 sequence (O15244 1-555 S270A): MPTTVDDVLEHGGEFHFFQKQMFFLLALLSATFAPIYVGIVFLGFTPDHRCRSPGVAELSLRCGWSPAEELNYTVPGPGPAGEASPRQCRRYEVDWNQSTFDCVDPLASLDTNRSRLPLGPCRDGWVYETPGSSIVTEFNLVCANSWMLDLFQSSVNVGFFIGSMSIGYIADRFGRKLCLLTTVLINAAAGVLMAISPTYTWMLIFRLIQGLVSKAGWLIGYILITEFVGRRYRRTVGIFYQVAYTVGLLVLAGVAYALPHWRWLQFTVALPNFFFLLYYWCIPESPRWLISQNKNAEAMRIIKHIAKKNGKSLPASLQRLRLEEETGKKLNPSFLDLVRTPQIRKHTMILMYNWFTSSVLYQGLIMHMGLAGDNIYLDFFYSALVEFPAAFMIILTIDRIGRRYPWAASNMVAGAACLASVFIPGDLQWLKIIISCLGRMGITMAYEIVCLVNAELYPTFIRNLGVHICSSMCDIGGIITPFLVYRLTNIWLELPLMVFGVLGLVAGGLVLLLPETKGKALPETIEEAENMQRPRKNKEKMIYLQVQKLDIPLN
# T4: OCT2 variant A270S (Homo sapiens, UniProt O15244)
# T4 sequence (O15244 1-555): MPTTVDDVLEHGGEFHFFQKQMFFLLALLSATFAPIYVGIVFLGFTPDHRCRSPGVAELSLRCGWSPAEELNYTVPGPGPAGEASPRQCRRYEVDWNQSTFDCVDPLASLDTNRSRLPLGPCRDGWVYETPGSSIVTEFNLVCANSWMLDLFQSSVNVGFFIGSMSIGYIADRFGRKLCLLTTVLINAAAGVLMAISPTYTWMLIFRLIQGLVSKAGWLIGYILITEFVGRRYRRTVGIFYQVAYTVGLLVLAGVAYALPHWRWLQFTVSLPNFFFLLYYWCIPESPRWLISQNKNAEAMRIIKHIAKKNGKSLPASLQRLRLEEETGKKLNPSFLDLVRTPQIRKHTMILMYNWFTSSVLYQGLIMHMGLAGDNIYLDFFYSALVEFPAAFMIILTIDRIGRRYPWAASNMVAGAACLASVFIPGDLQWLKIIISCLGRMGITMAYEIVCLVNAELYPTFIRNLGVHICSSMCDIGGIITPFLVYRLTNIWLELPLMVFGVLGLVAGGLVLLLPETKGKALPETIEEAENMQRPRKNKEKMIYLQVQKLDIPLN
# Key:
# OCT2 = biological target: T1, OCT2; assay: Screening of cellular uptake at 1 µM, OCT2-overexpressing HEK293 cells over empty vector control cells; conditions: 2 min
# Description: (§1) Koepsell and Gorbulev (University of Würzburg, Germany).
# (§2) Eighteen psychostimulants and hallucinogens were initially screened for their potential to be substrates for different polyspecific OCTs and high-affinity monoamine neurotransmitter transporters (Figure 3), as well as for the efflux transporter MATE2-K (Supplementary Figure S1).
# [1] = cited from earlier work
# OCT3 = biological target: T2, OCT3; assay: Screening of cellular uptake at 1 µM, OCT3-overexpressing HEK293 cells over empty vector control cells; assay type: in vitro ADME; conditions: 2 min
# Description: as §1, §2
# SERT = SERT (Homo sapiens, UniProt P31645); assay: Screening of cellular uptake at 1 µM, SERT-overexpressing HEK293 cells over empty vector control cells; assay type: in vitro ADME; conditions: 2 min
# wild-type OCT2 = biological target: T3, wild-type OCT2; assay: Concentration-dependent transport by wild-type OCT2 in HEK293 cells; conditions: for vmax: OCT2 WT
# OCT2 variant A270S = biological target: T4, OCT2 variant A270S; assay: Concentration-dependent transport by OCT2 variant A270S in HEK293 cells; conditions: OCT2 A270S
# not read [2] = substrate: CN[C@@H](C)[C@H](O)c1ccccc1; assay: not read; conditions: pH 7.4, 37.0 °C
# not read [3] = substrate: CNC(C)Cc1ccc(OC)cc1; assay: not read; conditions: pH 7.4
# not read [4] = substrate: CN(C)CCc1c[nH]c2ccccc12; assay: not read; conditions: pH 7.4
# not read [5] = substrate: CN[C@@H](C)Cc1ccccc1; assay: not read; conditions: other: OCT2 A270S; pH 7.4; 37.0 °C
# not read [6] = substrate: COc1cc(CCN)cc(OC)c1OC; assay: not read; conditions: other: OCT1*1 (WT); net transport, 2 min; pH 7.4; 37.0 °C
# Sequence of SERT (P31645 whole entry): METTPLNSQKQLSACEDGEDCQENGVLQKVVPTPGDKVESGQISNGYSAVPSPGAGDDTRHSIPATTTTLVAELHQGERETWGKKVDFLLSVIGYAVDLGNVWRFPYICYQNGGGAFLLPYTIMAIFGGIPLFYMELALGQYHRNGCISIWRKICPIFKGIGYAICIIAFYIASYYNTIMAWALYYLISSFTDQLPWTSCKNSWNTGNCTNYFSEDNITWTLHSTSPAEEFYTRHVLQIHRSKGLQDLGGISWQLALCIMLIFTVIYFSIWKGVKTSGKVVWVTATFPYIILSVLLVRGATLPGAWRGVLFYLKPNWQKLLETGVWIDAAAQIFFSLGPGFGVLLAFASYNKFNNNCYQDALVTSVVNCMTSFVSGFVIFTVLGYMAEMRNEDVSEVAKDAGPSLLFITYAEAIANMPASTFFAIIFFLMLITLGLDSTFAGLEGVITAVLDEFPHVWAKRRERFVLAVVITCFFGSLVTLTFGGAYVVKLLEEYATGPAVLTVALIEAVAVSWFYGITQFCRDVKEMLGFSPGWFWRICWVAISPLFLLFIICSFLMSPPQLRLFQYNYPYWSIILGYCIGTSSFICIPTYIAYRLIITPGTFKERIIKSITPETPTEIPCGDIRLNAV
molecule,measurement,setting,value
"CN(C)CCc1c[nH]c2ccccc12 [DMT, dimethyltryptamine]",ratio of uptake in transporter-transfected cells over empty vector control cells,OCT2,approximately 3 fold
same,excreted unchanged in urine,"[1]; following intramuscular administration, ref Sitaram et al., 1987, Barker, 2018",0.16%
CC(N)Cc1ccccc1 (stereo not shown) [Amphetamine],ratio of uptake in transporter-transfected cells over empty vector control cells,OCT3,does not appear to be a substrate
"CNC(C)Cc1ccc(OC)cc1 (stereo not shown) [PMMA, para-methoxymethamphetamine]",ratio of uptake in transporter-transfected cells over empty vector control cells,OCT2,approximately 3 fold
same,ratio of uptake in transporter-transfected cells over empty vector control cells,SERT,slightly higher (albeit still low) uptake
C[C@H](N)C(=O)c1ccccc1 [Cathinone],renal elimination (unchanged in urine),"[1]; ref Kalix and Braenden, 1985, Toennes and Kauert, 2002",2–7%
"COc1ccc(CC(C)N)cc1 (stereo not shown) [PMA, para-methoxyamphetamine]",ratio of uptake in transporter-transfected cells over empty vector control cells,SERT,slightly higher (albeit still low) uptake
CN[C@@H](C)Cc1ccccc1 [Methylamphetamine],ratio of uptake in transporter-transfected cells over empty vector control cells,OCT2,4- to 6 fold
same,vmax,wild-type OCT2; listed as Methamphetamine,70.7 (± 8.3) pmol × mg protein^-1 × min^-1
same,vmax,wild-type OCT2; listed as methamphetamine,70.7 ± 8.3 pmol × mg protein^-1 × min^-1
same,Km at 2 min,"wild-type OCT2; human, pH 7.4",11.9 µM
same,renal elimination,"[1]; ref Toennes and Kauert, 2002, www.dosing.de and www.drugbank.ca",30–54%
same,vmax,OCT2 variant A270S,34.5 (± 8.5) pmol × mg protein^-1 × min^-1
wild-type OCT2 (Homo sapiens; S270A) (protein) MPTTVDDVLEHGGEFHFFQKQMFFLLALLSATFAPIYVGIVFLGFTPDHRCRSPGVAELSLRCGWSPAEELNYTVPGPGPAGEASPRQCRRYEVDWNQSTFDCVDPLASLDTNRSRLPLGPCRDGWVYETPGSSIVTEFNLVCANSWMLDLFQSSVNVGFFIGSMSIGYIADRFGRKLCLLTTVLINAAAGVLMAISPTYTWMLIFRLIQGLVSKAGWLIGYILITEFVGRRYRRTVGIFYQVAYTVGLLVLAGVAYALPHWRWLQFTVALPNFFFLLYYWCIPESPRWLISQNKNAEAMRIIKHIAKKNGKSLPASLQRLRLEEETGKKLNPSFLDLVRTPQIRKHTMILMYNWFTSSVLYQGLIMHMGLAGDNIYLDFFYSALVEFPAAFMIILTIDRIGRRYPWAASNMVAGAACLASVFIPGDLQWLKIIISCLGRMGITMAYEIVCLVNAELYPTFIRNLGVHICSSMCDIGGIITPFLVYRLTNIWLELPLMVFGVLGLVAGGLVLLLPETKGKALPETIEEAENMQRPRKNKEKMIYLQVQKLDIPLN,Km,not read [2]; other: OCT2 WT,15.7 (± 4.6) μM
same,Vmax,not read [2]; other: OCT2 WT,417.8 (± 35.6) pmol × mg protein^-1 × min^-1
same,Km,not read [3]; other: OCT2 WT,7.9 (± 2.6) μM
same,Vmax,not read [3]; other: OCT2 WT,225.1 (± 19.3) pmol × mg protein^-1 × min^-1
same,Km,not read [4]; other: OCT2 WT,13.0 (± 3.7) μM
same,Vmax,not read [4]; other: OCT2 WT,296.7 (± 23.3) pmol × mg protein^-1 × min^-1
OCT2 variant A270S (Homo sapiens) (protein) MPTTVDDVLEHGGEFHFFQKQMFFLLALLSATFAPIYVGIVFLGFTPDHRCRSPGVAELSLRCGWSPAEELNYTVPGPGPAGEASPRQCRRYEVDWNQSTFDCVDPLASLDTNRSRLPLGPCRDGWVYETPGSSIVTEFNLVCANSWMLDLFQSSVNVGFFIGSMSIGYIADRFGRKLCLLTTVLINAAAGVLMAISPTYTWMLIFRLIQGLVSKAGWLIGYILITEFVGRRYRRTVGIFYQVAYTVGLLVLAGVAYALPHWRWLQFTVSLPNFFFLLYYWCIPESPRWLISQNKNAEAMRIIKHIAKKNGKSLPASLQRLRLEEETGKKLNPSFLDLVRTPQIRKHTMILMYNWFTSSVLYQGLIMHMGLAGDNIYLDFFYSALVEFPAAFMIILTIDRIGRRYPWAASNMVAGAACLASVFIPGDLQWLKIIISCLGRMGITMAYEIVCLVNAELYPTFIRNLGVHICSSMCDIGGIITPFLVYRLTNIWLELPLMVFGVLGLVAGGLVLLLPETKGKALPETIEEAENMQRPRKNKEKMIYLQVQKLDIPLN,Km,not read [2]; other: OCT2 A270S,14.7 (± 4.1) μM
same,Vmax,not read [2]; other: OCT2 A270S,229.5 (± 18.2) pmol × mg protein^-1 × min^-1
same,Km,not read [3]; other: OCT2 A270S,14.4 (± 8.6) μM
same,Vmax,not read [3]; other: OCT2 A270S,172.1 (± 31.5) pmol × mg protein^-1 × min^-1
same,Km,not read [4]; other: OCT2 A270S,14.2 (± 7.9) μM
same,Vmax,not read [4]; other: OCT2 A270S,164.2 (± 25.9) pmol × mg protein^-1 × min^-1
same,Km,not read [5],24.3 (± 17.0) μM
OCT1*1 (WT) (Homo sapiens) (protein) MPTVDDILEQVGESGWFQKQAFLILCLLSAAFAPICVGIVFLGFTPDHHCQSPGVAELSQRCGWSPAEELNYTVPGLGPAGEAFLGQCRRYEVDWNQSALSCVDPLASLATNRSHLPLGPCQDGWVYDTPGSSIVTEFNLVCADSWKLDLFQSCLNAGFLFGSLGVGYFADRFGRKLCLLGTVLVNAVSGVLMAFSPNYMSMLLFRLLQGLVSKGNWMAGYTLITEFVGSGSRRTVAIMYQMAFTVGLVALTGLAYALPHWRWLQLAVSLPTFLFLLYYWCVPESPRWLLSQKRNTEAIKIMDHIAQKNGKLPPADLKMLSLEEDVTEKLSPSFADLFRTPRLRKRTFILMYLWFTDSVLYQGLILHMGATSGNLYLDFLYSALVEIPGAFIALITIDRVGRIYPMAMSNLLAGAACLVMIFISPDLHWLNIIIMCVGRMGITIAIQMICLVNAELYPTFVRNLGVMVCSSLCDIGGIITPFIVFRLREVWQALPLILFAVLGLLAAGVTLLLPETKGVALPETMKDAENLGRKAKPKENTIYLKVQTSEPSGT,Km,not read [6],24.3 (±6.3) µM
same,Vmax,not read [6],0.000642 µmol/min/mg
